Measured values reported in patent US20220226442A1.

Molecular target: IL-2 receptors on the cell surface of human PBMC populations (Tregs, CD25^high T helper cells, NK cells, cytotoxic T cells)
Experiment: cell-based or functional assay

Substance	Ratio (CD25^high T helper EC50 / Treg EC50)	pSTAT5 EC50, Treg [nM]	pSTAT5 Max. Signal, Treg (relative to V69A/Q74P IL-2-Fc)
IL-2-Fc fusion protein F42K/V69A/Q74P, (G4S)4 linker, IgG1 Fc N297G	15.9	–	–
IL-2-Fc fusion protein F42Q/V69A/Q74P, (G4S)4 linker, IgG1 Fc N297G	25.9	–	–
IL-2-Fc fusion protein K35E/V69A/Q74P, (G4S)4 linker, IgG1 Fc N297G	300	–	–
IL-2-Fc fusion protein R38E/V69A/Q74P, (G4S)4 linker, IgG1 Fc N297G	9	–	–
IL-2-Fc fusion protein R38N/V69A/Q74P, (G4S)4 linker, IgG1 Fc N297G	2820	–	–
IL-2-Fc fusion protein R38Q/V69A/Q74P, (G4S)4 linker, IgG1 Fc N297G	28.4	–	–
irrelevant (non-binding) antibody with IL-2 N88D fused to its C-terminus	–	0.37	0.5
